Key:
ICAM-1 = ICAM-1 (Homo sapiens, UniProt P05362); assay: Radioiodinated IgG B11 binding to Ramos cells, Rosenthal-Scatchard analysis; parameters: endogenous in cells; host or cells: Ramos B lymphoma cells
Experimental: Iodination of 1 mg/ml of IgG1 B1 or IgG1 B11 proteins with [^125I] NaI was performed in PBS for 10 min using Iodogen pre-coated iodination tubes (Pierce). Free [^125I] NaI was removed by desalting on PD-10 columns (Amersham Biosciences), yielding specific radioactivities in the range of 1000-1600 cpm per ng protein. [^125I] IgG1 B1 and [^125I] IgG1 B11 was used for determination of antibody affinities.
Radioiodinated IgG B1 or IgG B11 was incubated with B lymphoma cells in DPBS-B-hIgG (DPBS-B containing 0.2 mg/ml human IgG) for 2 h on ice with intermittent mixing. Non-specific binding was determined in the presence of 0.2 mg/ml unlabelled IgG B1 or IgG B11 protein, as appropriate. […]
Cells were loaded on top 40% v/v Ficoll/DPBS-B cushions in individual tubes and were centrifuged at 400×g for 6 min at 4° C. […] Cell pellets and cell supernatants were isolated and analysed separately for ^125I-IgG protein content in a gamma counter, following cutting of the tubes in half.
Antibody affinity constants (Kd values) and epitope numbers per cell were determined from Scatchard plot analysis according to Rosenthal et al. (Anal. Biochem. (1967) 20:525-532); Bylund and Yamamura (Methods in Neurotransmitter Analysed, New York: Raven Press Ltd., 1990); and Marquardt (J. Soc. Indust. Appl. Math. (1963) 11:431-441), as previously described (Brix et al., J. Clin. Invest. (1998) 102:283-293). […]

Ramos = assay: Apoptosis induction by cross-linked IgG (Annexin V/PI); type: cell-based, human; details: for Apoptosis Induction: Ramos, viable cells after 6 hour incubation, crosslinked, compared to control FITC-8 IgG1
Experimental: (§1) 2×10^5 B lymphoma cells (Raji or Ramos) or Jurkat T cells were incubated with serially diluted and detoxified scFv's in culture medium for 1 h on ice.
(§2) When whole IgGs were used for apoptosis induction, cross-linking reagent was replaced by goat Fab′2 anti-human Fc γ antibody (Jackson ImmunoResearch) with minimal cross-reactivity with non-IgG antibody isotypes (to avoid unspecific cross-linking of endogenous B lymphoma associated surface immunoglobulins) and incubated, as described above, for 6 h.
(§3) Apoptotic cells were, unless otherwise stated, detected by combined staining with Annexin V Alexa Fluor 488 (AV) and Propidium Iodide (PI) (both from Molecular Probes, Invitrogen) and subsequent flow-cytometric analysis, Cells were defined as viable (AV−/PI−), early apoptotic (AV+/PI−) or late apoptotic/necrotic (AV+/PI+). AV and PI signals were recorded in the FL1 and FL2 or FL3 channels (as indicated in the text), respectively, using a FACSCalibur instrument (BD Biosciences).
(§4) • ^aApoptosis Induction; determined by percentage of viable cells after 6 hour incubation with any of the human antibodies, crosslinked with Goat anti-Human (gamma) Fc specific antibody; −, viability not affected; +, 95-80%; ++, 79-60%; +++, 59-40% viable cells compared to control (human FITC-8 IgG1). […] The cell line dependent MFI value of control human FITC-8 IgG antibody was subtracted from the MFI of each human antibody.
(§5) BI-505 receptor occupancy was studied following FACS analyses of tumor cells incubated with increasing concentrations of BI-505 in vitro. Briefly, following pre-blocking of tumor cell FcγR with 1 mg/ml human IgG on ice for 15 min, tumor cells were incubated with 10-fold serially diluted (10 μg/ml to 0.00001 μg/ml) AF647-BI505 and surface bound BI-505 was recorded as the mean fluorescence intensities (MFI) picked up in the FL4 channel of a FACSCalibur instrument. The experiment was repeated three times and mean MFI values were calculated and plotted as a function of antibody concentration. A binding saturation curve was generated by plotting mean MFI values as a function of BI-505 concentration. The curve was fitted using a five-parameter log-log curve and XLfit software. BI-505 concentration dependent PCD was calculated by plotting the percentage of maximal tumor PCD in vitro as a function of BI-505 concentration in a manner analogous to that described for BI-505 receptor occupancy. Briefly, tumor cells were cultured with increasing concentrations of BI-505 in the presence of hyper-cross-linking antibody reagent for 24 hr, and PCD was monitored after combined staining with Annexin V/AF488 and propidium iodide using flow cytometry. Cells received treatment in triplicate and the experiment was repeated three to five times. Mean percentage of maximal PCD was then plotted as a function of BI-505 concentration and was fitted using a five parameter log-log curve and XLfit software. In vitro PCD and in vivo anti-tumor activity were plotted as a function of receptor occupancy using curve fitting equations and data generated and described above.

Raji = assay: as above; type: cell-based, human; details: for Apoptosis Induction: Raji, viable cells after 6 hour incubation, crosslinked, compared to control FITC-8 IgG1
Experimental: as §1, §2, §3, §4, §5

Daudi = assay: as above; type: cell-based, human; details: for Apoptosis Induction: Daudi, viable cells after 6 hour incubation, crosslinked, compared to control FITC-8 IgG1
Experimental: as §1, §2, §3, §4, §5

[1] = tested on: other monitored peripheral blood leukocyte subsets; assay: Flow-cytometric IgG binding, Ramos cells mixed with peripheral blood leukocytes; parameters: species or system human
Source text: (§6) Washing was repeated twice.

monocyte cells = assay: as above; parameters: species or system human
Source text: as §6

[2] = tested on: peripheral blood B lymphocytes; assay: as above; parameters: species or system human
Source text: as §6

Ramos cells = assay: as above; parameters: species or system human
Source text: as §6

Reh/KM-3 = assay: IgG binding to pre B cell leukaemia cell line, flow cytometry MFI; parameters: species or system human; details: Reh/KM-3, pre B cell Leukaemia; control FITC-8 IgG MFI subtracted
Experimental: as §4

Chain of ICAM-1 (P05362 28-532): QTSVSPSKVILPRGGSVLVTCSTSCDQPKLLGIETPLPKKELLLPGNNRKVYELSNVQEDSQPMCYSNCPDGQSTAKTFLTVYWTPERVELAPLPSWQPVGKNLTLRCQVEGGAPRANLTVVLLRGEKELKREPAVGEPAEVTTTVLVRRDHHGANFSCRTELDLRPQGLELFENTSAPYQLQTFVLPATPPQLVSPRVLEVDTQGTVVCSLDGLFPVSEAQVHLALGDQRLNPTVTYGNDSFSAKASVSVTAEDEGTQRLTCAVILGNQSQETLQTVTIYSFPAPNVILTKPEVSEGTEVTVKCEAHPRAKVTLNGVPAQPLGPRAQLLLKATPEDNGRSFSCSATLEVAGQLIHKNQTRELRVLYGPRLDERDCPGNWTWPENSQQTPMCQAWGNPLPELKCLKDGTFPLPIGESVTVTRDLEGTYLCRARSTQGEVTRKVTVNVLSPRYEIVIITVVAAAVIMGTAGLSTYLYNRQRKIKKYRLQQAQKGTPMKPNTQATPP

| Molecule | functional binding sites (receptors) per cell (ICAM-1; Rosenthal-Scatchard plot) | concentration at which saturable specific binding is reached (ICAM-1; radioiodinated IgG) | PCD induction (Ramos; ICAM-1-expressing Ramos lymphoma cells) | Apoptosis Induction (Ramos) | PCD induction (Raji; ICAM-1-expressing Raji lymphoma cells) | Apoptosis Induction (Raji) | Apoptosis Induction (Daudi) | PCD induction (Daudi; ICAM-1-expressing Daudi lymphoma cells) | binding [1] | MFI (monocyte cells) | MFI [2] | MFI (Ramos cells) | concentration at which binding peaked (Ramos cells) | MFI (Reh/KM-3) |
| --- | --- | --- | --- | --- | --- | --- | --- | --- | --- | --- | --- | --- | --- | --- |
| B11: fully human IgG1 antibody specific for ICAM-1; VH and VL sequences of FIG. 10 (SEQ ID NOs. 6 and 8) (antibody, listed as Homo sapiens, V domains shown) VH: EVQLLESGGGLVQPGGSLRLSCAASGFTFSNAWMSWVRQAPGKGLEWVAFIWYDGSNKYYADSVKGRFTISRDNSKNTLYLQMNSLRAEDTAVYYCARYSGWYFDYWGQGTLVTVSS VL: QSVLTQPPSASGTPGQRVTISCTGSSSNIGAGYDVHWYQQLPGTAPKLLIYDNNNRPSGVPDRFSGSKSGTSASLAISGLRSEDEADYYCQSYDSSLSAWLFGGGTKLTVLG | 47,400 | ~1 nM | dose-dependently induced PCD | ++ (79-60%) | dose-dependently induced PCD | + (95-80%) | + (95-80%) | dose-dependently induced PCD | negative | 176 | 78 | 654 | 0.1 µg/mL | 20 |
| C11: fully human IgG1 antibody specific for surface IgM; VH and VL sequences of FIG. 11 (SEQ ID NOs. 10 and 12) (antibody, listed as Homo sapiens, V domains shown) VH: EVQLLESGGGLVQPGGSLRLSCAASGFTFGSYEMNWVRQAPGKGLEWVSVIYSGGSTYYADSVEGRFTISRDNSKNTLYLQMNSLRAEDTAVYYCARDTNPYYYYGMDVWGQGTLVTVSS VL: QSVLTQPPSASGTPGQRVTISCSGSSSNIGNNAVNWYQQLPGTAPKLLIYRNNQRPSGVPDRFSGSKSGTSASLAISGLRSEDEADYYCQSYDSSLNGQVFGGGTKLTVLG |  |  |  | +++ (59-40% viable cells compared to control (human FITC-8 IgG1)) |  | + (95-80%) | + (95-80%) |  |  |  |  |  |  | 0 |

Reference: US9803013B2, “Biological materials and uses thereof” (BioInvent International AB, priority 2005, dated 2017)
